In PMC11211510, “Sequence-specific dynamic DNA bending explains mitochondrial TFAM’s dual role in DNA packaging and transcription initiation”:

T1: TFAM (UniProt Q00059 43-245)
T1 sequence: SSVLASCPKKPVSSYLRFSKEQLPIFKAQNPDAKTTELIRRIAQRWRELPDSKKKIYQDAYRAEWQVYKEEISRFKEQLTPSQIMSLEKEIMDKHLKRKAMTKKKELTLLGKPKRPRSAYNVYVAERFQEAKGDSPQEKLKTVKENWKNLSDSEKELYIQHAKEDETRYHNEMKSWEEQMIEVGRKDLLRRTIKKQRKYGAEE

T2: TFAM-ΔC26 (C-tail deletion) (UniProt Q00059 43-220)
T2 sequence: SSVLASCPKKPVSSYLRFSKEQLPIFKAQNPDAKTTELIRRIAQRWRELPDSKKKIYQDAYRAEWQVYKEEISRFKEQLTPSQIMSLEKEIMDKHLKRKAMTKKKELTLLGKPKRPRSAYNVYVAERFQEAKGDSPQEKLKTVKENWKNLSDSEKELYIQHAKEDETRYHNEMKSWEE


Tests used:
[1] = target: T1, TFAM; experiment: fluorescence anisotropy; 10 mM Mg acetate; apparent Kd; 50 mM Tris acetate pH 7.5, 100 mM Na glutamate, 50 mM NaCl, 10 mM Mg acetate, 0.5 mM TCEP, 0.01% Tween 20, 0.1 mg/ml BSA, 25 °C; 5 nM DNA, 0-75 nM TFAM; details: protein: recombinant; tags: N-terminal 6xHis, TEV-cleaved; label: fluorescein (FITC) at 3' end of template strand; blunt
[2] = target: T2, TFAM-ΔC26 (C-tail deletion); experiment: fluorescence anisotropy; 10 mM Mg acetate; 50 mM Tris acetate pH 7.5, 100 mM Na glutamate, 50 mM NaCl, 10 mM Mg acetate, 0.5 mM TCEP, 0.01% Tween 20, 0.1 mg/ml BSA, 25 °C; 5 nM DNA, 0-75 nM TFAM; details: protein: recombinant; tags: SUMO fusion, cleaved; label: fluorescein (FITC) at 3' end of template strand; blunt
[3] = target: T1, TFAM; experiment: smFRET; bending equilibrium K(F/P) 24.6 ± 7.6; 50 mM Tris acetate pH 7.5, 100 mM Na glutamate, 50 mM NaCl, 10 mM Mg acetate, 0.5 mM TCEP, 0.01% Tween 20, 0.1 mg/ml BSA, 25 °C; 5 nM DNA, 0-75 nM TFAM; details: protein: recombinant; tags: N-terminal 6xHis, TEV-cleaved; label: Atto565 at 5' non-template, Atto647N at 5' template; blunt
[4] = target: T1, TFAM; experiment: smFRET; bending equilibrium K(F/P) 0.59 ± 0.24; 50 mM Tris acetate pH 7.5, 100 mM Na glutamate, 50 mM NaCl, 10 mM Mg acetate, 0.5 mM TCEP, 0.01% Tween 20, 0.1 mg/ml BSA, 25 °C; 5 nM DNA, 0-75 nM TFAM; details: protein: recombinant; tags: N-terminal 6xHis, TEV-cleaved; label: Atto565 at 5' non-template, Atto647N at 5' template; blunt
[5] = target: T1, TFAM; experiment: smFRET; bending equilibrium K(F/P) 1.70 ± 0.74; 50 mM Tris acetate pH 7.5, 100 mM Na glutamate, 50 mM NaCl, 10 mM Mg acetate, 0.5 mM TCEP, 0.01% Tween 20, 0.1 mg/ml BSA, 25 °C; 5 nM DNA, 0-75 nM TFAM; details: protein: recombinant; tags: N-terminal 6xHis, TEV-cleaved; label: Atto565 at 5' non-template, Atto647N at 5' template; blunt

Binder	Kd [1] [nM]	Kd [2] [nM]	other results
HSP (-41 to -12), fluorescein (dsDNA) DNA 1: CACACCGCTGCTAACCCCATACCCCGAACC DNA 2: GGTTCGGGGTATGGGGTTAGCAGCGGTGTG	~43	~100	
LSP (-41 to -12), fluorescein (dsDNA) DNA 1: TGTGTTAGTTGGGGGGTGACTGTTAAAAGT DNA 2: ACTTTTAACAGTCACCCCCCAACTAACACA	~9		
LSP, Atto565/Atto647N (dsDNA, biotin-2xPEG18 at 3' end of template) DNA 1: TGTGTTAGTTGGGGGGTGACTGTTAAAAGT DNA 2: ACTTTTAACAGTCACCCCCCAACTAACACA			binding result [3]: binds
NS, Atto565/Atto647N (dsDNA, biotin-2xPEG18 at 3' end of template) DNA 1: TAGCAGGAGCAGGAACAGGATGAACAAGCA DNA 2: TGCTTGTTCATCCTGTTCCTGCTCCTGCTA			binding result [4]: binds
NS (non-specific), fluorescein (dsDNA) DNA 1: TAGCAGGAGCAGGAACAGGATGAACAAGCA DNA 2: TGCTTGTTCATCCTGTTCCTGCTCCTGCTA	~44	~100	
HSP, Atto565/Atto647N (dsDNA, biotin-2xPEG18 at 3' end of template) DNA 1: CACACCGCTGCTAACCCCATACCCCGAACC DNA 2: GGTTCGGGGTATGGGGTTAGCAGCGGTGTG			binding result [5]: binds
